Measurements as given in patent US20190169310A1 (Amgen, published 2019).
Numbering of substitutions follows the chain as printed. Names may count otherwise.

T1: human 1-27 CD3ε-EpCAM (human)
T1 construct: also called 1-27 CD3-EpCAM comprising the human 27 mer
T1 chain: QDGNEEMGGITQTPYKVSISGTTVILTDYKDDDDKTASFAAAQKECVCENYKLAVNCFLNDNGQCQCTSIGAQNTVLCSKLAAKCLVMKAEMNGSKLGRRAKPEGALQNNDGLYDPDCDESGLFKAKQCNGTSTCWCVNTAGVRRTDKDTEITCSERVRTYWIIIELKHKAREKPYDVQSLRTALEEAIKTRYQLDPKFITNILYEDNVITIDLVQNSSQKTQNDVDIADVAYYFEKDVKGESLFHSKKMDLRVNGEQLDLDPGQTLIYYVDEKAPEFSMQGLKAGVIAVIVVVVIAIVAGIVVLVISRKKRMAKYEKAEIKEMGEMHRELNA

T2: marmoset 1-27 CD3ε-EpCAM (Callithrix jacchus)
T2 construct: also called 1-27 CD3-EpCAM comprising the marmoset 27 mer
T2 chain: T1 chain with G9D, I10T, T13N, I25T

T3: tamarin 1-27 CD3ε-EpCAM (Saguinus oedipus)
T3 construct: also called 1-27 CD3-EpCAM comprising the tamarin 27 mer
T3 chain: T1 chain with G9D, I10T, T13N, I25T

T4: squirrel monkey 1-27 CD3ε-EpCAM (Saimiri sciureus)
T4 construct: also called 1-27 CD3-EpCAM comprising the squirrel monkey 27 mer
T4 chain: T1 chain with M7I, G9D, I10T, T13N, I25T

T5: swine 1-27 CD3ε-EpCAM (Sus scrofa)
T5 construct: negative control; also called 1-27 CD3-EpCAM comprising the swine 27 mer
T5 chain: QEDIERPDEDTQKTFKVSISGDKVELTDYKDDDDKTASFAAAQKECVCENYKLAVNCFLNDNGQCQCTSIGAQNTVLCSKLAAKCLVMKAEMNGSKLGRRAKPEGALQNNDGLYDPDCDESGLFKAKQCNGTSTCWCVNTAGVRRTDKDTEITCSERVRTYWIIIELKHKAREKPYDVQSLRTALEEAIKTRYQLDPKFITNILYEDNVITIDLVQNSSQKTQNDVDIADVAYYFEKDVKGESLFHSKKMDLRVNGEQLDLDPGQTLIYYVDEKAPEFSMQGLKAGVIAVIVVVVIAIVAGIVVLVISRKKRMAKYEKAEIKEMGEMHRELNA

B1: A2J HLP (scFv)
scFv: EVQLLESGGGLVQPGGSLKLSCAASGFTFNVYAMNWVRQAPGKGLEWVARIRSKYNNYATYYADSVKKRFTISRDDSKNTAYLQMNNLKTEDTAVYYCVRHGNFGNSYLSWWAYWGQGTLVTVSSGGGGSGGGGSGGGGSELVVTQEPSLTVSPGGTVTLTCRSSTGAVTSGYYPNWVQQKPGQAPRGLIGATDMRPSGTPARFSGSLLGGKAALTLSGVQPEDEAEYYCALWYSNRWVFGGGTKLTVL
notes: crude periplasmic preparation; also called VH-VL-P of A2J
B2: E2M HLP (scFv)
scFv: B1 scFv with V31G, K68E, G102R, W112F
notes: crude periplasmic preparation; also called VH-VL-P of E2M
B3: scFv MP 9076-A9 (scFv)
scFv: QVQLVESGGGLVKPGGSLRLSCAASGFTFSDYYMYWVRQAPGKGLEWVAIISDGGYYTYYSDIIKGRFTISRDNAKNNLYLQMNSLRAEDTAVYYCARGFPLLRHGAMDYWGQGTLVTVSSGGGGSGGGGSGGGGSDIQMTQSPSSLSASVGDRVTITCKASQNVDTNVAWYQQKPGQAPKSLIYSASYRYSDVPSRFSGSASGTDFTLTISSVQSEDFATYYCQQYDSYPYTFGGGTKLEIK
notes: crude periplasmic extract from E. coli, His-tagged (His detection); also called PM76A9-HL
B4: scFv MP 9076-B10 (scFv)
scFv: B3 scFv with G16E, N78S, R87K
notes: crude periplasmic extract from E. coli, His-tagged; 610 read as B10; also called MP 9076-610; MP9076-610 (so in the source)
B5: scFv F1-A10 (scFv)
scFv: EVQLLESGGGLVQPGGSLRLSCAASGFTFSDFFMAWVRQAPGRGLEWVSTIVSDGGSTYYRDSVKGRFTISRDNSKNTLYLQMNSLRAEDTAVYYCARRGNSGYYVMDAWGQGTTVTVSSGGGGSGGGGSGGGGSDIQMTQSPSTLSASVGDRVTITCRASSSVTYMHWYQQKPGKAPKLLIYDTSKVASGVPSRFSGSGSGTEFTLTISSLQPDDFATYYCQQWSRNSPYTFGQGTKLEIK
notes: crude periplasmic extract from E. coli, His-tagged; also called PM F1-A10 HL

Legend:
[1] = target: T6, 1-27 CD3-Fc (human); assay: ELISA, periplasmic scFv on captured 1-27 CD3-Fc
T6 construct: assigned to this molecule; also called 1-27 CD3ε-Fc; 27 aa huCD3E

[2] = target: T1, human 1-27 CD3ε-EpCAM; assay: FACS, 293-HEK transfectants
[3] = target: T2, marmoset 1-27 CD3ε-EpCAM; assay: FACS, 293-HEK transfectants
[4] = target: T3, tamarin 1-27 CD3ε-EpCAM; assay: FACS, 293-HEK transfectants
[5] = target: T4, squirrel monkey 1-27 CD3ε-EpCAM; assay: FACS, 293-HEK transfectants
[6] = target: T5, swine 1-27 CD3ε-EpCAM; assay: FACS, 293-HEK transfectants
[7] = target: T7, human PSMA (human, UniProt Q04609 1-750); assay: Pepscan ELISA, 15-mer peptides of the extracellular domain of human PSMA
T7 construct: whole, on cells; also called prostate-specific membrane antigen
T7 sequence (Q04609 whole entry, the tested form may be a part): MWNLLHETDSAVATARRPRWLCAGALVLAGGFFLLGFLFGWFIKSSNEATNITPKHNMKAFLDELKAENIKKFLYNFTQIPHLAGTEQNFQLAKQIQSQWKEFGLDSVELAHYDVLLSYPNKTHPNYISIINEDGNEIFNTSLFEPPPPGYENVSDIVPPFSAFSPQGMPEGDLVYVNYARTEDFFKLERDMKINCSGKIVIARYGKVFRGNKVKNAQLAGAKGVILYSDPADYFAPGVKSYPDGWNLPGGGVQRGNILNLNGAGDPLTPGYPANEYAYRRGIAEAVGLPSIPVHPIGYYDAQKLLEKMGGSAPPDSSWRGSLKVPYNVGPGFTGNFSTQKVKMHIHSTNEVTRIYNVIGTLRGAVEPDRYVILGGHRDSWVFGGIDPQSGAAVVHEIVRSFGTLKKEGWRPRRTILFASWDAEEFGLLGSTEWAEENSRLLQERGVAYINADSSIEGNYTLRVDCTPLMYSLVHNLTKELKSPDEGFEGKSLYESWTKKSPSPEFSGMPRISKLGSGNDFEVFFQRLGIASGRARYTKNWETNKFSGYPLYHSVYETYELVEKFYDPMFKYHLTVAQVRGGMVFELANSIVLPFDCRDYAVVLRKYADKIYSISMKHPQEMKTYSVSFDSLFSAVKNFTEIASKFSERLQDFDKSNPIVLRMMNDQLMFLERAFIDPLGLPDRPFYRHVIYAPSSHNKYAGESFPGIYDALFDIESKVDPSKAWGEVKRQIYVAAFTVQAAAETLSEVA
Method: These three PSMA BiTE antibodies were subjected to an alternative epitope mapping approach based on peptide scanning (Pepscan). Pepscan uses overlapping peptides of a given protein and analyses antibody binding to immobilized peptides by enzyme-linked immunosorbent assays (ELISAs). The epitope mapping experiments with PSMA BiTE antibodies were performed at the company Pepscan (Lelystad, The Netherlands).
These peptides were coated to ELISA wells in a 384-well plate format. […] To this end 7 ml of crude periplasmic extracts were shipped on dry ice to Pepscan (The Netherlands). Using scFv counterparts in this assay minimized the risk to pick up signals from the second non-PSMA binding specificity of the BiTE antibodies, which may lead to misinterpretation of the PSMA binding epitopes of the target binders. The scFvs were incubated with the peptides and specific binding detected using an anti-His antibody. Binding signals were measured in a 384-well ELISA reader.

Row | Binder | binding result [1] | binding result [7] | also measured
1 | B1 | binds | – | –
2 | B2 | binds | – | binding result [2]: binds; binding result [3]: binds; binding result [4]: binds; binding result [5]: binds; binding result [6]: no binding
3 | B3 | – | binds | –
4 | B4 | – | binds | –
5 | B5 | – | binds | –
